Consider 30 sequences from the nanobody polyreactivity screen of Harvey et al. (2022).

A short description of the data set: yeast display, Sf9 membrane polyspecificity reagent, FACS + sequencing; frameworks hold sequencing errors. The procedure, abridged:
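In a synthetic yeast display library (Saccharomyces cerevisiae BJ5465), nanobody expression was induced with galactose for 36–48 hours. FACS gates were set low and high (top ~1%) using anti-HA fluorescence for expression and streptavidin fluorescence for binding of the Sf9 membrane reagent. Each polyreactivity label is drawn from the gate of origin.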
Turning to “QVQLVESGGGLVQAGGSLRLSCAASGFILEGYAMGWYRQAPGKERELVAAITRRGTRTYYADSVKGRFTISRDNAKNTVYLQMNSLKPEDTAVFYCNAESRSTWVAGYDYWGQGTQVTVSS”, the “polyreactivity (PSR sort gate)” value is listed as “high polyreactivity”.

As for “QVQLVESGGGLVQAGGSLRLSCAASGFILGGYAMGWYRQAPGKERELVAAISWSSGSTYYADSVKGRFTISRDNAKTTVYLQLNSLKPEDTAVYYCAAVGAYDYWGQGTQVTVSS”, the “polyreactivity (PSR sort gate)” value was “low polyreactivity”.

Regarding “QVQLVESGGGLVQAGGSLRLSCAASGFILGLNAMGWYRRAPGKEREFVADISWSGDSTYYADSVKGRFTISRDNAKNTVYLQMNSLKPEDTAVYFCAADRYYNWGYYYWGQGTQVTVSS”, the “polyreactivity (PSR sort gate)” value is on record as “low polyreactivity”.

Regarding “QVQLVESGGGLVQAGGSLRLSCAASGFILGQYTMGWYRQAPGKERELVASINGSDGITYYADSVKGRFTISRDNAKNTVYLQMNSLKPEDTAVYYCARPPRHYTFWGRRFYYWGQGTQVTVSS”, the “polyreactivity (PSR sort gate)” value was “low polyreactivity”.

Consider “QVQLVESGGGLVQAGGSLRLSCAASGFILGTNAMGWYRQAPGKERELVAAISYSGGSTNYADSVKGRFTISRDNAKNTVYLQMYSLKPEDTPVYYCNRDPRKYGKLDYWGQGTQVTVSS”, for which the “polyreactivity (PSR sort gate)” value is listed as “low polyreactivity”.

For “QVQLVESGGGLVQAGGSLRLSCAASGFILKPYAMGWYRQAPWKERELVAAITYSGSSTYYADSVKGRFTISRDNAKNTVYLQMNSLKPEDTAVYYCAARDWSHPRRLFYWGQGTQVTVSS”, the “polyreactivity (PSR sort gate)” value is reported as “high polyreactivity”.

As to “QVQLVESGGGLVQAGGSLRLSCAASGFILNAYTMGWYRQAPGKERELVATITINGGSTYYADSVKGRFTISRDNAKNTVYLQMNSLKPEDTPVYYCNADYWYKYDYWGQGTQVTVSS”, the “polyreactivity (PSR sort gate)” value is “low polyreactivity”.

For “QVQLVESGGGLVQAGGSLRLSCAASGFILQYNAMGWYRQAPGKERELVAAITRSGVSTYYADSVKGRFTISRDNAKNTVYLQMNSLKPEDTAVYYCAATGGDRYEAYYYWGQGTQVTVSS”, the “polyreactivity (PSR sort gate)” value is on record as “low polyreactivity”.

Consider “QVQLVESGGGLVQAGGSLRLSCAASGFILRYNAMGWYRQAPGKERELVAAISYTGDRTYYADSVKGRFTISRDNAKNTVYLQMNSLKPEDTAVYYCNAGKGQRALVRIGSKLMYYWGQGTQVTVSS”, for which the “polyreactivity (PSR sort gate)” value is on record as “high polyreactivity”.

Turning to “QVQLVESGGGLVQAGGSLRLSCAASGFILSDNAMGWYRQAPGKEREFVAAITSSGGSTHYADSVKGRFTISRDNAKNTVYLQMNSLKPEDTAVYYCAVGRPYWYDVWSFVSHYDYWGQGTQVTVSS”, the “polyreactivity (PSR sort gate)” value is on record as “low polyreactivity”.

With “QVQLVESGGGLVQAGGSLRLSCAASGFILSDNAMGWYRQAPGKEREFVAAITSSGGSTHYADSVKGRFTISRDNAKNTVYLQMNSLKPEDTAVYYCNTYPYLWGQGTQVTVSS”, the “polyreactivity (PSR sort gate)” value is listed as “low polyreactivity”.

For the sequence “QVQLVESGGGLVQAGGSLRLSCAASGFILSDYAMGWYRQAPGKERELVAGINSGGSTYYADSVKGRFTISRDNAKNTVYLQMNSLIPEDTAVYYCAAGVDYWWLVHFLYYYWGQGTQVTVSS”, the “polyreactivity (PSR sort gate)” value is listed as “high polyreactivity”.

Take “QVQLVESGGGLVQAGGSLRLSCAASGFILSVYAMGWYRQAPGTETELVAAISKRGGSTNYADSVKGRFTISRDNAKDTVYLQMNSLKPEDTAVYYCAKARAGFLYDHWGQGTQVTVSS”: the “polyreactivity (PSR sort gate)” value is reported as “high polyreactivity”.

In the case of “QVQLVESGGGLVQAGGSLRLSCAASGFILTQYAMGWYREAPGKERELVASISSSGSTYYADSVKGRFTISRDNAKNTVYLQMNSLKPEDTGVYYCATPGPAVHGTRGEYDYWGQGTQVTVSS”, the “polyreactivity (PSR sort gate)” value is “high polyreactivity”.

For the sequence “QVQLVESGGGLVQAGGSLRLSCAASGFILTSYAMGWYRKAPGKERELVAAISSRGGRTYYADSVKGRFTISRDNEKNTVYLQMNSLKPEDTAVYYCNAGVYVVGDFDYWGLGTQVTVSS”, the “polyreactivity (PSR sort gate)” value was “high polyreactivity”.

As for “QVQLVESGGGLVQAGGSLRLSCAASGFILYFKAMGWYRQAHGKERELVAAITSDGGSTYYADSLKGRFTISRDNAKNTVYLQMNSLKPEDTAVYYCAADASTWYTEEYWGQGTQVTVSS”, the “polyreactivity (PSR sort gate)” value is “low polyreactivity”.

In the case of “QVQLVESGGGLVQAGGSLRLSCAASGFISDVYAMGWYRQAPGKERELVAVITWRGSTYYADSVKGRFTISRDNAKNTVYLQMNSLKPEDTAVYYCAAESQGDWAFDYWGQGTQVTVSS”, the “polyreactivity (PSR sort gate)” value is “low polyreactivity”.

For the sequence “QVQLVESGGGLVQAGGSLRLSCAASGFISGKYAMGWYRQAPGKERELVASIRSGGSTNYADSVKGRFTISRDNAKNTVYLQMNSLKPEDTAVYYCAKLRGSRGVIYDYWGQGTQVTVSS”, the “polyreactivity (PSR sort gate)” value was “high polyreactivity”.

“QVQLVESGGGLVQAGGSLRLSCAASGFISGVNTMGWYSQAPGKERELVAAISSGGRTHYADSVKGRFTISRDNAKNTVYLQMNSLKPEDTAVYYCATRVRSTTRYYYWGLGTQVTVSS”: the “polyreactivity (PSR sort gate)” value was “high polyreactivity”.

Regarding “QVQLVESGGGLVQAGGSLRLSCAASGFISRAYAMGWYRQAPGKERELVAAISVRVGSTYYADSVKGRFTISRDNAKNTVYLQMNSLKPEDTAVYYCAALRPWPRYDYWGQGTQVTVSS”, the “polyreactivity (PSR sort gate)” value was “high polyreactivity”.

Regarding “QVQLVESGGGLVQAGGSLRLSCAASGFISRYYGMGWYRQAPGKERELVAAISWSGGRTHYADSVKGRFTISRDNAKNTVYLQMNSLKPEDTAVYYCATDRYYRPGGEYDYWGQGTQVTVSS”, the “polyreactivity (PSR sort gate)” value was “high polyreactivity”.

In the case of “QVQLVESGGGLVQAGGSLRLSCAASGFISSHYAMGWYRPAPGKEWEVVATISSGGSTYADSVKGRFTISRDNAKNTVYLQMNSLKPEDTAVYYCAKRYYKSLNRDEFDSWGQGTQVTVSS”, the “polyreactivity (PSR sort gate)” value is reported as “high polyreactivity”.

Consider “QVQLVESGGGLVQAGGSLRLSCAASGFISVRNAMGWYRQAPGKEREFVAAISGGGGSTYYADSVKGRFTISRDNAKNTVYLQMNSLKPEDTAVYYCNAPRYLYSAGRFNYWGQGTQVTVSS”, for which the “polyreactivity (PSR sort gate)” value is given as “high polyreactivity”.

Regarding “QVQLVESGGGLVQAGGSLRLSCAASGFISYYYAMGWYRQAPGKERELVAAITKSGGSTYYADSVKGRFTIARDNAKNTVSLQMNSLKPEDTAVYYCAAVRSTRNSTSRLYGYWGQGTQVTVSS”, the “polyreactivity (PSR sort gate)” value is “low polyreactivity”.

“QVQLVESGGGLVQAGGSLRLSCAASGFIVDTYAMGWYRQAPGKERELVAVISSSGGRTYYADSVKGRFTISRDNAKNTVYFQMNSLKPEDTAVYYCAARWYSGYGRFDYWGQGTQVTVSS”: the “polyreactivity (PSR sort gate)” value was “high polyreactivity”.

In the case of “QVQLVESGGGLVQAGGSLRLSCAASGFIVSTKVMGWYRQAPGKERELVADINTGGSTSYADSVKGRFTNSRDNAKNTVYLQMNSLKPEDTAVYSCAAVLQYYYLSTDDPYDYWGQGTQVTVSS”, the “polyreactivity (PSR sort gate)” value is “low polyreactivity”.

Turning to “QVQLVESGGGLVQAGGSLRLSCAASGFIYGGNPRGWYRQAPGKERELVAANRSGGSTYYADSVKGRFTISRDNAKNTVYLQMNILKPEDTAVYYCAVRLRYAYRARGNYWGQGTQVTVSS”, the “polyreactivity (PSR sort gate)” value is “low polyreactivity”.

For the sequence “QVQLVESGGGLVQAGGSLRLSCAASGFIYKFYAMGWYRQEPGKVRELVAAISDSGGSTYYADSVKGRFTISRDNAKNTVYLQMNSLKPEDTAVYYCNADWSWNNYYDFDYWGLGTQVTVSS”, the “polyreactivity (PSR sort gate)” value is given as “low polyreactivity”.

Turning to “QVQLVESGGGLVQAGGSLRLSCAASGFIYSNNAMGWYRQAPGKERELVAAISASGSSTYYADSVKGRFTISRDNAKNTVYLQMNSLKPEDTAVYYCAAKSRTYQSYYYWGQGTQVTVSS”, the “polyreactivity (PSR sort gate)” value is “high polyreactivity”.

Consider “QVQLVESGGGLVQAGGSLRLSCAASGFIYSRYAMGWYRQAPRKEMDFFAAISRNGGSTYYADSVKGRITISRDNAKNTVYLQMNSLKPDDTAVYYCIAPYFVTSTYANTLGFDYWGQGTQVTVSS”, for which the “polyreactivity (PSR sort gate)” value is on record as “high polyreactivity”.
